Laboratory results from article doi:10.1101/2020.06.17.153486 (bioRxiv, 2020).

Target: SARS-CoV-2 RBD fused with SD1 (SARS-CoV-2, Wuhan-Hu-1 type, UniProt P0DTC2)
Assay: ELISA

B1: mAb 2-4 (antibody, V domains shown)
VH: QVQLVQSGAEVKKPGASVKVSCKASGYTFTGYYMHWVRQAPGQGLEWMGWINPNSGGTNYTQMFQGRVTMTRDTSISTAYMEVSRLRSDDTAVYYCARDRSWAVVYYYMDVWGKGTTVTVSS
VL: QSALTQPPSASGSPGQSVTISCTGTSSDVGGYNYVSWYQQHPGKAPKLMIYEVSKRPSGVPDRFSGSKSGNTASLTVSGLQAEDEADYYCSSYAGSNNLVFGGGTKLTVL
B1: binds.
